± gives the standard deviation of the averaged measurements.
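Further: PSI is a weighted mean of sequencing reads over stability bins, variants kept only with over 10 reads, mCherry proximal and sfGFP distal, peptide attached via GGGS linker.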

This series deals with Saccharomyces cerevisiae. In words: protein stability index of tFT-peptide fusion (C-terminal peptide) (PSI (0-1 scale)); higher = more stable (slower turnover). The note with it: genetic background: wild type; temperature: 30 C.
In the case of KKKKKKTKKKNK, the protein stability index is 0.719 ± 0.016.
The sequence KKKKKKVRYIRI returned a protein stability index of 0.671 ± 0.046.
To KKKKKQKDTKHR belongs 0.682 ± 0.018; to KKKKKQKKKKKK, 0.643 ± 0.048; to KKKKKQTKGKNK, 0.688 ± 0.12.
The same measure for KKKKKRKKKKEK: 0.683 ± 0.044; for KKKKKTKKKAEK: 0.701 ± 0.022; for KKKKPKKKTQKS: 0.713 ± 0.04.
To KKKKQNKRKRKT belongs 0.635 ± 0.0086.
Take KKKKQRKQEKKI: the protein stability index amounted to 0.642 ± 0.008.
KKKKREKSKHRK showed a protein stability index of 0.714 ± 0.022.
To KKKKRIQEKEII belongs 0.63 ± 0.015; to KKKKRKIPKKKK, 0.635 ± 0.11.
As for KKKKTEIKRNKT, the protein stability index was determined as 0.689 ± 0.026.
In turn, KKKKTKKKTNSI registered a protein stability index of 0.727 ± 0.0076.
KKKKTKYIKRKK came in with a protein stability index of 0.701 ± 0.18.
For KKKKTQKKKTKQ, the protein stability index came to 0.668 ± 0.019.
Sequence KKKKTVHKKNRR came in with a protein stability index of 0.699 ± 0.022.
KKKLKYKGIRTN displayed a protein stability index of 0.679 ± 0.049.
Sequence KKKNNRITVFKV displayed a protein stability index of 0.636 ± 0.067.
As to KKKQKYRREEKE, the protein stability index was found to be 0.724 ± 0.051.
Turning to KKKQPKKNQNPT, the protein stability index stood at 0.767 ± 0.075.
For the sequence KKKRKKSKKKKK, the protein stability index came to 0.642 ± 0.1.
To KKKRRFTQEMDK belongs 0.684 ± 0.17; to KKKTKNGKEKRR, 0.7 ± 0.019.
In turn, KKLRNKKGKRYA came in with a protein stability index of 0.645 ± 0.086.
KKLSSRTQGLHG had a protein stability index of 0.746 ± 0.059.
The sequence KKLSTYSVIEKS displayed a protein stability index of 0.601 ± 0.042.
To KKMKEKKKRNHA belongs 0.712 ± 0.035; to KKNKAKRKKYIV, 0.616 ± 0.03.
KKNKHKEKIKKK had a protein stability index of 0.723 ± 0.069.
KKQKKHKKEKEK displayed a protein stability index of 0.638 ± 0.019.
Take KKQKKKKSTKRN: the protein stability index is 0.722 ± 0.038.
Sequence KKQRKRTKRKRK showed a protein stability index of 0.693 ± 0.048.
KKREEVKKNIKI gave a protein stability index of 0.681 ± 0.019.
On to KKRERNDKRGCQ, for which the protein stability index came out at 0.652 ± 0.024.
The sequence KKRKKKKQTKRK showed a protein stability index of 0.691 ± 0.022.
KKRKKKRTEPQP showed a protein stability index of 0.6421 ± 0.00099.
To KKRKNNKIRKKK belongs 0.723 ± 0.0053.
To KKRTTKEKKQHK belongs 0.693 ± 0.033; to KKSQKSKNKTHN, 0.571 ± 0.0066.
Consider KKTEGATEERKR, for which the protein stability index amounted to 0.692 ± 0.015.
Turning to KKTIENEGRNIL, the protein stability index is 0.645 ± 0.0069.
KKTIEQNNLTIV registered a protein stability index of 0.7091 ± 0.002.
As for KLGWSVTRAEVN, the protein stability index was found to be 0.687 ± 0.017.
With KLKITSKDKIIK, the protein stability index is 0.671 ± 0.016.
The sequence KLLRPMVLPQRT showed a protein stability index of 0.615 ± 0.02.
To KLSIKNLFDLLY belongs 0.691 ± 0.033; to KLTVPTKTIVHT, 0.651 ± 0.03.
KLVGASVYECQR: the protein stability index came out at 0.672 ± 0.012.
Regarding KMGTEEGRVWVG, the protein stability index is 0.651 ± 0.054.
Take KMVTRKKNEEKD: the protein stability index stood at 0.6328 ± 0.0029.
With KNEKEKKTKMRN, the protein stability index is 0.754 ± 0.14.
With KNGLERFTSNRS, the protein stability index came out at 0.641 ± 0.051.
KNKQSKNKSKRK came in with a protein stability index of 0.712 ± 0.038.
Regarding KNKTRSEISKNS, the protein stability index is 0.6974 ± 0.0017.
The sequence KNNSKKRKLKPR registered a protein stability index of 0.718 ± 0.14.
In turn, KNRKKIKIVCVK registered a protein stability index of 0.559 ± 0.026.
Sequence KNRKTQSNQTKI returned a protein stability index of 0.719 ± 0.025.
Regarding KNSNIDKMIRKE, the protein stability index is 0.6973 ± 0.0012.
KNTRIKKMKRRT displayed a protein stability index of 0.827 ± 0.097.
For KNTVRKCNGRMH, the protein stability index came out at 0.57 ± 0.063.
As for KPRKEKRGLVNS, the protein stability index was 0.664 ± 0.039.
For KPSHNEARKKGG, the protein stability index was found to be 0.681 ± 0.014.
KQGKKKDEWTRG displayed a protein stability index of 0.6945 ± 0.0023.
To KQKIKKRIKKTI belongs 0.6958 ± 0.0029.
The sequence KQKIKTDKYKKD had a protein stability index of 0.656 ± 0.051.
KQKLEGTIIREL gave a protein stability index of 0.674 ± 0.024.
The same measure for KQRENMCRCARE: 0.712 ± 0.074; for KQRTRKYLNSRN: 0.654 ± 0.12; for KRDNKNKDKQKK: 0.7 ± 0.024.
KREKKNTYIKKV showed a protein stability index of 0.671 ± 0.04.
With KREQKPHPKLKL, the protein stability index amounted to 0.5682 ± 0.0021.
As for KRGGRGEKAEGK, the protein stability index is 0.655 ± 0.024.
The sequence KRGRISKKRDSS displayed a protein stability index of 0.759 ± 0.017.
The sequence KRGSREQQRYWK had a protein stability index of 0.659 ± 0.027.
In turn, KRIGLGEERQKR registered a protein stability index of 0.57 ± 0.078.
As for KRIIRSYHFLGC, the protein stability index is 0.698 ± 0.047.
KRIKTEKRRSKK displayed a protein stability index of 0.748 ± 0.046.
KRILKEKRRKKN yielded a protein stability index of 0.658 ± 0.036.

Values taken from the supplement of paper PMC10724198.
